# Measured values reported in patent US20200087408A1 (ANAPTYSBIO, published 2020).
# T1: human IL-36R (on cells) (human, UniProt Q9HB29 20-575)
# T1 sequence (looked up): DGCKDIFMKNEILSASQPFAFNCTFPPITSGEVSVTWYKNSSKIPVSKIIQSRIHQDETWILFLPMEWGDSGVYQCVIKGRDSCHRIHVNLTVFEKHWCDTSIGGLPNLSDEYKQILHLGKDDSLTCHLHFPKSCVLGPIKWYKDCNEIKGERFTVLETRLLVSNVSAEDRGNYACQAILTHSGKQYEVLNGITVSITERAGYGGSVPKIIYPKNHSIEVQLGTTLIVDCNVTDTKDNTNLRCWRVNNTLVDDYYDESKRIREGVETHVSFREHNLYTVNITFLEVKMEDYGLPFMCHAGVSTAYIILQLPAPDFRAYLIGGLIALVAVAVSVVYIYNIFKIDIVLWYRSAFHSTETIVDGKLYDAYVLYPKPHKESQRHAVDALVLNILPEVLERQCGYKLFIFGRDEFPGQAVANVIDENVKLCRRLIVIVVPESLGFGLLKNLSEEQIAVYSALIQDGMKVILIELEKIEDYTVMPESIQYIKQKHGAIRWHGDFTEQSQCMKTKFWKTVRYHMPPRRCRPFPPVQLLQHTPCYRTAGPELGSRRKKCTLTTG
# T2: extracellular domain of human IL-36R (human, UniProt Q9HB29 20-335)
# T2 construct: extracellular domain; Immobilised on the chip in the BIACORE assay; soluble and bead-coupled in the KINEXA assay; also called soluble human IL-36R extracellular domain
# T2 sequence (looked up): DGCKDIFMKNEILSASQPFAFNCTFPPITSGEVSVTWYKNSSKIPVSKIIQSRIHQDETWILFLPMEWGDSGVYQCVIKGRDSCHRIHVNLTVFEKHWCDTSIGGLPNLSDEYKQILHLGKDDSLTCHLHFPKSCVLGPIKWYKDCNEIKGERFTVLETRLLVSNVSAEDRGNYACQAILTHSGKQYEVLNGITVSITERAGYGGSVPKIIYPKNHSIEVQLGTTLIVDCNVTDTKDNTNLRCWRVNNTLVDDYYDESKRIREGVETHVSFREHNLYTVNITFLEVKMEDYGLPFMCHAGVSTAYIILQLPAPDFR
# Columns and labels:
# [1] = target: cynomolgus monkey IL-36R variant 3 (on cells) (cynomolgus monkey), A0A2K5; test: cell-based or functional assay
# cynomolgus monkey IL-36R variant 3 (on cells) (cynomolgus monkey), A0A2K5, sequence (chain, as listed by the source mutant): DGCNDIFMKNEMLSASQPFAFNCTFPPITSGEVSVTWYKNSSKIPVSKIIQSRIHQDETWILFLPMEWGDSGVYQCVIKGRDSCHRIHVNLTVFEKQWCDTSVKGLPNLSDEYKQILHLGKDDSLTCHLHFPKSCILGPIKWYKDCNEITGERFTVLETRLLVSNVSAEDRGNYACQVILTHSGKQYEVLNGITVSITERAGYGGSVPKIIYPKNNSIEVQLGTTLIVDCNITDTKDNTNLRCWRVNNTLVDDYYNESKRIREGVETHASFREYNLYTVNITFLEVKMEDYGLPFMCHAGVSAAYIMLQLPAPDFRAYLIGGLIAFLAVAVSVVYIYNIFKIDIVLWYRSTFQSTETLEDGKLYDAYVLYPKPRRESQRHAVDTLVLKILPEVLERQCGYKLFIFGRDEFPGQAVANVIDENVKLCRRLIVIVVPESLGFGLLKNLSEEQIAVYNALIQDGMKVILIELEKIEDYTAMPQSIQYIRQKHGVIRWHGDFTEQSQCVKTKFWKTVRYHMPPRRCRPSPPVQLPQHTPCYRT
# [2] = target: cynomolgus monkey IL-36R variant 2 (on cells) (cynomolgus monkey), A0A2K5; test: cell-based or functional assay
# cynomolgus monkey IL-36R variant 2 (on cells) (cynomolgus monkey), A0A2K5, sequence (chain, as listed by the source mutant): as above
# [3] = target: cynomolgus IL-36R (on cells, allelic variant not stated) (cynomolgus monkey), A0A2K5; test: cell-based or functional assay
# cynomolgus IL-36R (on cells, allelic variant not stated) (cynomolgus monkey), A0A2K5, sequence (chain, as listed by the source mutant): as above
# human IL-36R (on cells) [4] = target: T1, human IL-36R (on cells); test: cell-based or functional assay
# human IL-36R (on cells) [5] = target: T1, human IL-36R (on cells); test: flow cytometry on CHO-K cells co-expressing human IL-36R and human IL-1RAcP
# Description: The binding of antibodies to CHO-K cells stably co-expressing human IL-36R and human IL-1RAcP was examined. Cynomolgus IL-36R allelic variation was examined by Sanger sequencing, and four distinct allelic variants were identified within cynomolgus monkey populations. The binding of antibodies to CHO-K cells stably co-expressing cynomolgus monkey IL-36R variant 1 and cynomolgus monkey IL-1RAcP was also examined for APE6155 and APE7247. Each antibody was incubated with CHO cells harvested using accutase, washed, and seeded at 500,000 cells per well. Cells were incubated with antibodies at concentrations ranging from 33 nM-16 pM for 30 minutes at 4° C., and washed three times with FACS staining buffer. Cells were spun and aspirated, and then the incubated with 100 μl paraformaldehyde for 10 minutes at room temperature. Cells were again washed, aspirated, and stained with 100 μL of anti-human IgG Alexa 647 for 20 minutes at 4° C. Cells were resuspended in 100 μL FACS analysis buffer before analysis on the FACS Array (BD Biosciences).
# [6] = target: cynomolgus monkey IL-36R variant 1 (on cells) (cynomolgus monkey); test: cell-based or functional assay
# [7] = target: T2, extracellular domain of human IL-36R; test: KINEXA 3000 solution-phase equilibrium, soluble human IL-36R extracellular domain
# Description: The binding affinities of various purified antibodies comprising immunoglobulin heavy chain (HC) and light chain (LC) polypeptides described herein also were evaluated using a KINEXA® 3000 assay (Sapidyne Instruments, Boise, Id.) assays. KINEXA® technology measures the amount of unbound/free antibody molecule in solution phase after incubation with varying concentrations of antigen. Measuring binding events in the solution phase with micro beads for maximized surface area avoids mass transport limitations and mobility effects inherent to methods that measure binding to a solid phase. For each experiment, 50 μg of soluble human or cyno IL-36R extracellular domain was amine-coupled to 50 mg of UltraLink Biosupport beads (Thermo Fisher Scientific, Waltham, Mass.). […] Antibody-antigen solution was then flowed over antigen-coupled beads at a rate of 0.25 mL/min. Free antibody captured by beads was detected using ALEXA FLUOR™ 647-conjugated AffiniPure Donkey Anti-Human IgG (H+L) (Jackson ImmunoResearch, West Grove, Pa.) (500 ng/ml). The KD and/or ABC (active binding concentration) of antibody was obtained from non-linear regression analysis using a one-site homogeneous binding model in the KINEXA™ Pro Software.
# human IL-36R (on cells) [8] = target: T1, human IL-36R (on cells); test: cell-based or functional assay; remark: listed apart in the source
# [9] = target: cynomolgus monkey IL-36R variant 1 (on cells) (cynomolgus monkey); test: flow cytometry on CHO-K cells co-expressing cynomolgus IL-36R variant 1 and cynomolgus IL-1RAcP
# [10] = target: T2, extracellular domain of human IL-36R; test: BIACORE T200 SPR, human IL-36R extracellular domain immobilised, antibody injected
# Description: The binding affinities of various purified antibodies comprising immunoglobulin heavy chain (HC) and light chain (LC) polypeptides described herein were evaluated using BIACORE™ T200 […] assays. BIACORE™ T200 evaluation software (GE Healthcare, Buckinghamshire, United Kingdom) is used to determine antibody-antigen binding kinetics and affinity. The extracellular domain of human IL-36R was immobilized at approximately 100 RU onto a CMS sensor chip (GE Healthcare, Waukesha, Wis.) using amine coupling chemistry. HBS-EP+ buffer (0.01 M HEPES, 0.15 M NaCl, 3 mM EDTA, 0.05% Polysorbate, pH 7.6) (Teknova, Hollister, Calif.) was used to reconstitute each antibody at various concentrations Each antibody concentration was then injected for two to three minutes over immobilized antigen at a flow rate of 30 μL/min, and allowed to dissociate for 15 minutes. The surface was regenerated with 60 μL of 3 M MgCl₂ after each cycle. Association and dissociation kinetic constants (kon and koff) were fit globally using a 1:1 binding model with mass transport with the BIACORE™ T200 evaluation software in order to report on- and off-rates (ka and kd, respectively), as well as affinities (KD).
# human IL-36R (on cells) [11] = target: T1, human IL-36R (on cells); test: cell-based or functional assay; remark: listed apart in the source
# [12] = target: cyno IL-36R (BIACORE antigen of Table 4) (cynomolgus monkey); test: BIACORE T200 SPR, cyno IL-36R
binder,measurement,setting,value
"Hzd 5D3 (APE6155) (antibody, V domains shown, also called APE6917; APE06155) VH: QVQLVQSGAEVKKPGASVKVSCKASGYTFTNYWMNWVRQAPRQGLEWMGMFHPTGDVTRLNQKFKDRVTMTRDTSTSTVYMELSSLRSEDTAVYYCARTTSMIIGGFAYWGQGTLVTVSS VL: DIVMTQTPLSLSVTPGQPASISCRSSKSLLHRNAITYFYWYLHKPGQPPQLLIYQMSNLASGVPDRFSGSGSGTDFTLKISRVEAEDVGVYYCAQNLELPLTFGGGTKVEIK","EC50 (nM), IL-8 luciferase reporter assay, 300 ng/ml IL-36γ (Cyno IL-36R variant 3)",[1],0.21 nM
same,"EC50 (nM), IL-8 luciferase reporter assay, 300 ng/ml IL-36γ (Cyno IL-36R variant 2)",[2],0.043 nM
same,"EC50 (nM), HEK cyno IL-36R IL-8 luciferase reporter assay, 300 ng/ml cIL-36γ",[3],0.31 nM
same,"EC50 (nM), HEK cyno IL-36R IL-8 luciferase reporter assay, 2 µg/ml cIL-36α",[3],0.08 nM
same,"EC50 (nM), HEK cyno IL-36R IL-8 luciferase reporter assay, 10 µg/ml cIL-36β",[3],0.13 nM
same,"EC50 (nM), IL-8 secretion by primary cynomolgus PBMCs, 10 ng/ml cyno IL-36β",[3],1.5 nM
same,"EC50 (nM), IL-8 secretion by primary cynomolgus PBMCs, 50 ng/ml cyno IL-36α",[3],1.2 nM
same,"EC50 (nM), IL-8 secretion by primary cynomolgus PBMCs, 250 ng/ml cyno IL-36γ",[3],0.89 nM
same,"EC50 (nM), IL-8 secretion by primary cynomolgus keratinocytes, 10 ng/ml cyno IL-36β",[3],1.4 nM
same,"EC50 (nM), IL-8 secretion by primary cynomolgus keratinocytes, 50 ng/ml cyno IL-36α",[3],1.1 nM
same,"EC50 (nM), IL-8 secretion by primary cynomolgus keratinocytes, 250 ng/ml cyno IL-36γ",[3],1.1 nM
same,"EC50 (nM), IL-8 secretion by primary human monocytes, human IL-36α",human IL-36R (on cells) [4],0.088 nM
same,"EC50 (nM), IL-8 secretion by primary human monocytes, human IL-36β",human IL-36R (on cells) [4],0.117 nM
same,"EC50 (nM), IL-8 secretion by primary human monocytes, human IL-36γ",human IL-36R (on cells) [4],0.078 nM
same,EC50,human IL-36R (on cells) [5],1.5 nM
same,"EC50 (nM), IL-8 luciferase reporter assay, 300 ng/ml IL-36γ (Cyno IL-36R variant 1)",[6],0.042 nM
same,Kd,[7],0.169 nM
same,"EC50 (nM), IL-8 secretion by primary human keratinocytes, 1 ng/ml human IL-36β",human IL-36R (on cells) [8],0.227 nM
same,"EC50 (nM), IL-8 secretion by primary human keratinocytes, 10 ng/ml human IL-36α",human IL-36R (on cells) [8],0.125 nM
same,"EC50 (nM), IL-8 secretion by primary human keratinocytes, 100 ng/ml human IL-36γ",human IL-36R (on cells) [8],0.093 nM
same,EC50,[9],2.4 nM
same,Kd,[10],0.071 nM
same,"EC50 (nM), HEK human IL-36R IL-8 luciferase reporter assay, 20 ng/ml hIL-36β",human IL-36R (on cells) [11],0.22 nM
same,"EC50 (nM), HEK human IL-36R IL-8 luciferase reporter assay, 50 ng/ml hIL-36α",human IL-36R (on cells) [11],0.23 nM
same,"EC50 (nM), HEK human IL-36R IL-8 luciferase reporter assay, 200 ng/ml hIL-36γ",human IL-36R (on cells) [11],0.4 nM
"Humanized (HzD) 1D9 (APE5281) (antibody, V domains shown, also called 1D9 Humanized) VH: QVQLMQSGAEVKKPGASVKVSCKASGFTFTSYDINWVRQAPGQRLEWMGWIYPGDSSTKYNEKFKGRVTITADKSANTAYMELASLRSEDTAVYFCTRSFYTMDYWGQGTTVTVSS VL: DIVMTQSPLSLPVTPGEPASISCRSSKSLLHSNANTYLYWFLQKPGQSPQLLISRMSNLASGVPDRFSGSGSGTDFTLKISRVEAEDVGVYYCMQHLEYPFTFGQGTKLEIK","EC50 (nM), IL-8 secretion by primary human monocytes, human IL-36α",human IL-36R (on cells) [4],0.035 nM
same,"EC50 (nM), IL-8 secretion by primary human monocytes, human IL-36β",human IL-36R (on cells) [4],0.033 nM
same,"EC50 (nM), IL-8 secretion by primary human monocytes, human IL-36γ",human IL-36R (on cells) [4],0.027 nM
same,Kd,[12],0.126 nM
same,Kd,[7],0.008 nM
same,"EC50 (nM), IL-8 secretion by primary human keratinocytes, 1 ng/ml human IL-36β",human IL-36R (on cells) [8],0.053 nM
same,"EC50 (nM), IL-8 secretion by primary human keratinocytes, 10 ng/ml human IL-36α",human IL-36R (on cells) [8],0.047 nM
same,"EC50 (nM), IL-8 secretion by primary human keratinocytes, 100 ng/ml human IL-36γ",human IL-36R (on cells) [8],0.04 nM
same,Kd,[10],0.077 nM
same,"EC50 (nM), HEK human IL-36R IL-8 luciferase reporter assay, 50 ng/ml hIL-36α",human IL-36R (on cells) [11],0.17 nM
same,"EC50 (nM), HEK human IL-36R IL-8 luciferase reporter assay, 200 ng/ml hIL-36γ",human IL-36R (on cells) [11],0.12 nM
"Hzd 18D4 (APE7247) (antibody, V domains shown, also called APE6903; APE07247) VH: DVQFQESGPGLVKPSQTLSLTCTVTGYSITADFAWNWIRQPPGKGLEWIGYISYSGDTNYNPSLKSRVTITRDTSKNQFSLKLSSVTAADTAVYFCAIRGPYSFTYWGQGTLVTVSS VL: DIQMTQSPSSLSASVGDRVTITCRASQWINNYLNWYQQKPGKAPKLLIYYTSMLHSGVPSRFSPSGSGNDYTFTISSLQPEDIATYYCQQGHTLPWTFGGGTKVEIKR",EC50,human IL-36R (on cells) [5],2.8 nM
same,Kd,[12],< 0.02 nM
same,"EC50 (nM), IL-8 luciferase reporter assay, 300 ng/ml IL-36γ (Cyno IL-36R variant 1)",[6],0.079 nM
same,Kd,[7],0.1 nM
same,"EC50 (nM), IL-8 secretion by primary human keratinocytes, 1 ng/ml human IL-36β",human IL-36R (on cells) [8],0.336 nM
same,"EC50 (nM), IL-8 secretion by primary human keratinocytes, 10 ng/ml human IL-36α",human IL-36R (on cells) [8],0.142 nM
same,"EC50 (nM), IL-8 secretion by primary human keratinocytes, 100 ng/ml human IL-36γ",human IL-36R (on cells) [8],0.074 nM
same,EC50,[9],3.3 nM
same,Kd,[10],< 0.02 nM
same,"EC50 (nM), HEK human IL-36R IL-8 luciferase reporter assay, 20 ng/ml hIL-36β",human IL-36R (on cells) [11],0.114 nM
same,"EC50 (nM), HEK human IL-36R IL-8 luciferase reporter assay, 50 ng/ml hIL-36α",human IL-36R (on cells) [11],0.066 nM
same,"EC50 (nM), HEK human IL-36R IL-8 luciferase reporter assay, 200 ng/ml hIL-36γ",human IL-36R (on cells) [11],0.104 nM
